# Columns and labels:
# [1] = molecular target: HIV-1 gp120 protein (Fitzgerald Industries International Inc, USA) (HIV-1); assay: dot blot: value derived from 1 pg in 1 mL of 10-fold diluted human serum
# [2] = molecular target: HIV-1 gp120 protein (Fitzgerald Industries International Inc, USA) (HIV-1); assay: fusion peptide on Ni-NTA magnetic agarose beads, detected with FITC-labeled gp120 antibody, fluorescence microscopy
# [3] = molecular target: HIV-1 gp120 protein (Fitzgerald Industries International Inc, USA) (HIV-1); assay: dot blot: 5 ng fusion F23 peptide on nitrocellulose, gp120 in 10-fold diluted human serum, HRP-conjugated gp120 antibody, chemiluminescence
binder,measurement,setting,value
"MIHHHHHHEMISLIAALAVIEGRCNLHFCQLRCKSLGLLGKCAGSFCACV (designed binder) [fusion F23 peptide (His6-tag, 15 amino acid linker derived from E. coli DHFR, F23)]",detectable gp120 concentration in human blood,[1],10 pg/mL
same,gp120 concentration detected,[2],10 ng/µL
same,detection limit of gp120,[3],1 pg/mL

# Reference: patent publication US20160237122A1
